Measurements taken from publication PMC7586803, “Click‐Chemistry (CuAAC) Trimerization of an αvβ6 Integrin Targeting Ga‐68‐Peptide: Enhanced Contrast for in‐Vivo PET Imaging of Human Lung Adenocarcinoma Xenografts” (Chembiochem, 2020).
Like-named read-outs stand apart in the source and are kept apart here.

Experiments:
physchem = assay type: physicochemical; conditions: pH 7.4
Procedure: To determine the n‐octanol/PBS distribution coefficients (log D 7.4), 650 μL octan‐1‐ol and 650 μL phosphate‐buffered saline (PBS, pH 7.4) were combined in a 1.5 mL Eppendorf tube. Approximately 0.5 MBq of the radiolabeled compound was added and vortexed for 2 min at 2850 rpm using a Vortex Genie2 (Scientific Industries). The samples were centrifuged (11 500 g, 10 min), after which 100 μL of the organic phase and 10 μL of the aqueous phase were taken out and the activities of the aliquots were quantified in a γ‐counter.

αvβ6 integrin [1] = target: T1, αvβ6 integrin (Homo sapiens, UniProt P06756+P18564); assay: Solid-phase binding assay (ELISA on immobilized integrins), αvβ6
T1 sequence (P06756 31-992 limits assumed): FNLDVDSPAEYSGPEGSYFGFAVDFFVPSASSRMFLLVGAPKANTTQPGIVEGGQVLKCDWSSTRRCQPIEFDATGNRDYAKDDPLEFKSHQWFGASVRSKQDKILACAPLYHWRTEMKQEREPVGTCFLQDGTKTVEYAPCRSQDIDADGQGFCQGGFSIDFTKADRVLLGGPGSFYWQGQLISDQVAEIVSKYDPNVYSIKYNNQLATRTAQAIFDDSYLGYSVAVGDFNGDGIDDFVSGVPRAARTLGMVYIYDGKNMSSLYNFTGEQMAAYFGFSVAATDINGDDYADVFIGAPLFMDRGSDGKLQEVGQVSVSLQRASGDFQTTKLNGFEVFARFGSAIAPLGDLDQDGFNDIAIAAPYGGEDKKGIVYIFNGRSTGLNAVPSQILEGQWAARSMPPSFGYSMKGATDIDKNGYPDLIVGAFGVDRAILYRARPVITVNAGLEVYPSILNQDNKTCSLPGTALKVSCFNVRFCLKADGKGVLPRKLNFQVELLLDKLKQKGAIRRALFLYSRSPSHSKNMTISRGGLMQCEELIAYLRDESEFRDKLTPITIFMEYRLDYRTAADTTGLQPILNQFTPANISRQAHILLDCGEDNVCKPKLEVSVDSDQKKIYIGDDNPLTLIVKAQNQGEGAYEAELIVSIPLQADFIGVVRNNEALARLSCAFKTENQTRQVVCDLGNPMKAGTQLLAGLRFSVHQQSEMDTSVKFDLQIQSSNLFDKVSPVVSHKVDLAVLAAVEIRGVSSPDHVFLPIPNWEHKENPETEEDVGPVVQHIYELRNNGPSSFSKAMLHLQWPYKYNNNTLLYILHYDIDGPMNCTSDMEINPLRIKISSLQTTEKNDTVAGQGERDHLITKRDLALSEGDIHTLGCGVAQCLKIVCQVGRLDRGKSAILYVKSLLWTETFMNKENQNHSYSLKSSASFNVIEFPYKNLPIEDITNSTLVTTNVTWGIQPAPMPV
T1 sequence (P18564 22-707 limits assumed): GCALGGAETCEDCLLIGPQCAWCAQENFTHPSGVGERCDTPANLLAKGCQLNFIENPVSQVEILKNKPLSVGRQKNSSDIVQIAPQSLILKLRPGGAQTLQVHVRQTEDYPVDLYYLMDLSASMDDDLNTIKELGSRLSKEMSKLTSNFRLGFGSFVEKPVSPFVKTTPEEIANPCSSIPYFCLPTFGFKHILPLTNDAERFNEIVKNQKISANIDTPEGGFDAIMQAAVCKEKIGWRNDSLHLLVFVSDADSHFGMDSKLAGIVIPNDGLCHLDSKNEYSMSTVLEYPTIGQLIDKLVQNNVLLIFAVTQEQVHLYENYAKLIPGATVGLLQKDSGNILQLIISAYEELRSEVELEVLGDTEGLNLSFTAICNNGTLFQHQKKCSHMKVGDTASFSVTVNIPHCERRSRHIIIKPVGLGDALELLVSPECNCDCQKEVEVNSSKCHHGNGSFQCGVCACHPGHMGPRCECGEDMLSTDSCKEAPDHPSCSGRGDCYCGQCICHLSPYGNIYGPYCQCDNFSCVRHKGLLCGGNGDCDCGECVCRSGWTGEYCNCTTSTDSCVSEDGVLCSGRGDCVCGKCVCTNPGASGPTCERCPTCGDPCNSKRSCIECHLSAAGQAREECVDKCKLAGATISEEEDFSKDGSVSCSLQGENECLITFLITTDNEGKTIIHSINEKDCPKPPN
Procedure: (§1) After washing the plates with PBS‐T buffer (phosphate‐buffered saline/Tween20), free binding sites were blocked by incubation with TS‐B buffer (Tris‐saline/BSA). […] Surface‐bound integrin was detected by subsequent incubation with a specific primary antibody and a secondary peroxidase‐labeled antibody (anti‐mouse IgG‐POD, Sigma–Aldrich). After addition of the dye SeramunBlau (Seramun Diagnostic, Heidesee, Germany) and quenching of the reaction by addition of 3 M H2SO4, the absorbance at λ=450 nm was measured with a microplate reader (Tecan Genius, Männedorf, Switzerland). The IC50 value for each compound was determined in duplicate and the inhibition curves were analyzed by using OriginPro 9.0 software.

αvβ8 integrin [2] = target: T2, αvβ8 integrin (Homo sapiens, UniProt P06756+P26012); assay: Solid-phase binding assay (ELISA on immobilized integrins), αvβ8; conditions: LAP(TGF-β)-coated plates, non-radioactive 69/71Ga complex, determined in duplicate, referenced to internal standard […], read-out: IC50 (95 % confidence interval) αvβ8
T2 sequence (P06756 31-992 limits assumed): as the sequence (P06756 31-992 limits assumed) above
T2 sequence (P26012 43-684 limits assumed): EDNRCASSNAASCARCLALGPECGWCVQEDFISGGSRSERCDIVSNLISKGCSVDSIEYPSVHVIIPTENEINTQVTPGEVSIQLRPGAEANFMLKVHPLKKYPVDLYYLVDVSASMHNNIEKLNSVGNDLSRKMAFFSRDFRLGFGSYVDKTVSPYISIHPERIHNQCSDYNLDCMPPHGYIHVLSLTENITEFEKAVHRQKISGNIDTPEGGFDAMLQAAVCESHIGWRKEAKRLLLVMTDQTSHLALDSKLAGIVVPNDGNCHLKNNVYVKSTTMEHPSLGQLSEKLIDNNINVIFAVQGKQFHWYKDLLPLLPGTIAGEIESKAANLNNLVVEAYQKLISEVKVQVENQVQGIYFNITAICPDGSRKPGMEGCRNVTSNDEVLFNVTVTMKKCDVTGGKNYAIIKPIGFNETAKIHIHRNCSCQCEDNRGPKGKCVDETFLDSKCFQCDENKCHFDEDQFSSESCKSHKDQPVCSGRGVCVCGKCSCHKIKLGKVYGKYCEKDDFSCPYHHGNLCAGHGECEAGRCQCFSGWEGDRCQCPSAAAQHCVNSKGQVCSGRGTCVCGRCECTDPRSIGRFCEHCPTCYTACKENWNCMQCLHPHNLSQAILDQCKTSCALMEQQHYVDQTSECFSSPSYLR
Procedure: as §1

in vivo = conditions: female, CB17 SCID, mouse, iv, 120 pmol, total radioactivity
Procedure: (§2) Mice were used for biodistribution or PET when tumors had grown to a diameter of 8–10 mm (4–5 weeks after inoculation). β6 Integrin immunohistochemistry (IHC) was performed as described before.37
(§3) For biodistribution studies, the mice were administered approximately 120 pmol (3–8 MBq, depending on radiolabeling yield and decay) of the radiopharmaceuticals into the tail vein and allowed to wake up with access to food and water. […] Animals were sacrificed 90 min after injection, blood was immediately taken from the heart with a syringe, and the organs of interest (heart, lung, liver, spleen, pancreas, stomach (empty), small intestine (empty), large intestine (empty), kidneys, adrenals, muscle, tongue, tumor, tail) were dissected. The activity in weighed tissue samples was quantified by using a γ‐counter. Injected dose per gram tissue (%ID/g) was calculated from the organ weights and counted activities.

[3] = test system: H2009 xenografted SCID mice; assay: in vivo; conditions: mouse
Procedure: as §2, §3

αvβ8 integrin [4] = target: T2, αvβ8 integrin; conditions: activity of the internal standard to which measured IC50 values were referenced; cited from earlier work
Description: (§4) Table 1 Integrin affinities (expressed as 50 % inhibition concentrations, IC50), IC50‐based selectivities, and octanol/PBS distribution coefficients (log D 7.4).

αvβ6 integrin [5] = target: T1, αvβ6 integrin; conditions: activity of the internal standard to which measured IC50 values were referenced; cited from earlier work
Description: as §4

[6] = %ID/g Tumor H2009 (tumor uptake)
[7] = tumor/organ ratio Heart (myocard)
[8] = tumor/organ ratio Large intestine (empty)
[9] = tumor/organ ratio Small intestine (empty)
[10] = tumor/organ ratio Stomach (empty)

Row | Compound | logD (physchem) | tissue uptake at 1.5 h (in vivo; %ID/g Adrenals) [%ID/g] | tissue uptake at 1.5 h (in vivo; %ID/g Blood) [%ID/g] | tissue uptake at 1.5 h (in vivo; %ID/g Heart (myocard)) [%ID/g] | tissue uptake at 1.5 h (in vivo; %ID/g Kidneys) [%ID/g] | tissue uptake at 1.5 h (in vivo; %ID/g Large intestine (empty)) [%ID/g] | tissue uptake at 1.5 h (in vivo; %ID/g Liver) [%ID/g] | tissue uptake at 1.5 h (in vivo; %ID/g Lung) [%ID/g] | tissue uptake at 1.5 h (in vivo; %ID/g Muscle) [%ID/g] | tissue uptake at 1.5 h (in vivo; %ID/g Pancreas) [%ID/g] | tissue uptake at 1.5 h (in vivo; %ID/g Small intestine (empty)) [%ID/g] | tissue uptake at 1.5 h (in vivo; %ID/g Spleen) [%ID/g] | tissue uptake at 1.5 h (in vivo; %ID/g Stomach (empty)) [%ID/g] | tissue uptake at 1.5 h (in vivo; %ID/g Tongue) [%ID/g] | tissue uptake at 1.5 h (in vivo; [6]) [%ID/g] | tissue to tissue ratio at 1.5 h (in vivo; tumor/organ ratio Adrenals) | tissue to tissue ratio at 1.5 h (in vivo; tumor/organ ratio Blood) | tissue to tissue ratio at 1.5 h (in vivo; [7]) | tissue to tissue ratio at 1.5 h (in vivo; tumor/organ ratio Kidneys) | tissue to tissue ratio at 1.5 h (in vivo; [8]) | also measured
1 | N=C(N)NCCC[C@@H]1NC(=O)CC[C@@H](C(=O)NCCCC[C@H](NC(=O)CCc2cn(CCCNC(=O)CCP(=O)(O)CN3CCN(CP(=O)(O)CCC(=O)NCCCn4cc(CCC(=O)N[C@@H](CCCCNC(=O)[C@@H]5CCC(=O)N[C@@H](CCCNC(=N)N)C(=O)NCC(=O)N[C@@H](CC(=O)O)C(=O)N[C@@H](C6CCCCC6)C(=O)N5)C(N)=O)nn4)CCN(CP(=O)(O)CCC(=O)NCCCn4cc(CCC(=O)N[C@@H](CCCCNC(=O)[C@@H]5CCC(=O)N[C@@H](CCCNC(=N)N)C(=O)NCC(=O)N[C@@H](CC(=O)O)C(=O)N[C@@H](C6CCCCC6)C(=O)N5)C(N)=O)nn4)CC3)nn2)C(N)=O)NC(=O)[C@H](C2CCCCC2)NC(=O)[C@H](CC(=O)O)NC(=O)CNC1=O [^68Ga‐TRAP(SDM17)3, metal not drawn] | -4.08 ± 0.07 | 0.16 ± 0.02 | 0.19 ± 0.05 | 0.1 ± 0.03 | 21.8 ± 2.7 | 0.41 ± 0.09 | 0.34 ± 0.21 | 0.71 ± 0.15 | 0.1 ± 0.02 | 0.07 ± 0.01 | 0.31 ± 0.08 | 0.58 ± 0.11 | 1.04 ± 0.22 | 0.35 ± 0.09 | 2.06 ± 0.34 | 12.5 ± 1.6 | 11.2 ± 1.9 | 21.7 ± 3 | 0.1 | 5.1 ± 1.2 | IC50 (αvβ6 integrin [1]; ELISA, LAP(TGF-β)-coated plates, non-radioactive 69/71Ga complex, determined in duplicate, referenced to internal standard […], read-out: IC50 (95 % confidence interval) αvβ6): 0.26 nM; Selectivity for αvβ6 over αvβ8 (αvβ6 integrin [1]; IC50-based selectivity factor (IC50 αvβ8 / IC50 αvβ6)): 662; IC50 (αvβ8 integrin [2]): 172 nM; tissue to tissue ratio at 1.5 h (in vivo; tumor/organ ratio Liver): 8.7 ± 5.2; tissue to tissue ratio at 1.5 h (in vivo; tumor/organ ratio Lung): 3 ± 0.4; tissue to tissue ratio at 1.5 h (in vivo; tumor/organ ratio Muscle): 22.3 ± 6.6; tissue to tissue ratio at 1.5 h (in vivo; tumor/organ ratio Pancreas): 29.7 ± 3; tissue to tissue ratio at 1.5 h (in vivo; [9]): 7 ± 1.7; tissue to tissue ratio at 1.5 h (in vivo; tumor/organ ratio Spleen): 3.6 ± 0.6; tissue to tissue ratio at 1.5 h (in vivo; [10]): 2 ± 0.4; tissue to tissue ratio at 1.5 h (in vivo; tumor/organ ratio Tongue): 6.2 ± 1.8; higher tumor uptake than monomer [3]: threefold
2 | N=C(N)NCCC[C@@H]1NC(=O)CC[C@@H](C(=O)NCCCC[C@H](NC(=O)c2ccc(NC(=O)CN3CCN(CC(=O)O)CCN(CC(=O)O)CC3)cc2)C(N)=O)NC(=O)[C@H](C2CCCCC2)NC(=O)[C@H](CC(=O)O)NC(=O)CNC1=O [^68Ga‐NOTA‐SDM17, metal not drawn] | -3.91 ± 0.07 | 0.28 ± 0.09 | 0.64 ± 0.05 | 0.2 ± 0.03 | 3.74 ± 0.73 | 0.22 ± 0.03 | 0.33 ± 0.04 | 0.47 ± 0.03 | 0.07 ± 0.01 | 0.15 ± 0.02 | 0.22 ± 0.01 | 0.32 ± 0.06 | 0.34 ± 0.06 | 0.28 ± 0.03 | 0.66 ± 0.03 | 2.5 ± 0.7 | 1 ± 0.1 | 3.3 ± 0.6 | 0.2 | 3.1 ± 0.4 | tissue to tissue ratio at 1.5 h (in vivo; tumor/organ ratio Liver): 2 ± 0.3; tissue to tissue ratio at 1.5 h (in vivo; tumor/organ ratio Lung): 1.4 ± 0.1; tissue to tissue ratio at 1.5 h (in vivo; tumor/organ ratio Muscle): 9.7 ± 0.7; tissue to tissue ratio at 1.5 h (in vivo; tumor/organ ratio Pancreas): 4.4 ± 0.8; tissue to tissue ratio at 1.5 h (in vivo; [9]): 3 ± 0.1; tissue to tissue ratio at 1.5 h (in vivo; tumor/organ ratio Spleen): 2.1 ± 0.4; tissue to tissue ratio at 1.5 h (in vivo; [10]): 2 ± 0.4; tissue to tissue ratio at 1.5 h (in vivo; tumor/organ ratio Tongue): 2.4 ± 0.3
3 | RTDLDSLRT |  |  |  |  |  |  |  |  |  |  |  |  |  |  |  |  |  |  |  |  | IC50 (αvβ8 integrin [4]): 100 nM; IC50 (αvβ6 integrin [5]): 33 nM
